Here are results for 21 sequences from the DeepSol protein solubility set.

This data set is described as follows: soluble on expression in E. coli; label from the status in PepcDB or PDB records.
On to “MSKSLKKLVEESREKNQPEVDMSDRGISNMLDVNGLFTLSHITQLVLSHNKLTMVPPNIAELKNLEVLNFFNNQIEELPTQISSLQKLKHLNLGMNRLNTLPRGFGSLPALEVLDLTYNNLSENSLPGNFFYLTTLRALYLSDNDFEILPPDIGKLTKLQILSLRDNDLISLPKEIGELTQLKELHIQGNRLTVLPPELGNLDLTGQKQVFKAENNPWVTPIADQFQLGVSHVFEYIRSETYKYLYGRHMQANPEPPKKNNDKSKKISRKPLAAKNR”, for which the “soluble on expression in E. coli” value was “not soluble”.
To “MAHHHHHHMAVSINSQLKYVVNQAASVEADMNCVERVQHYTSNIEHEDLMEEIDEAIRALEKNDKKRRERKGDPITPAGITHDDDDTSTATVSVPLLEESHASDASPELSYSPADNNNHNDDNGRRENVAAGSLEFRDVTMRYRAGLPHVLCGLTFTIPAGQKVGVIGRTGSGKSSLLLTLLRVVDIEDGQIVLSGRPIRSYSLRALRQLFSMIPQDPLLFNGKVRENLDPLNVCSDAQVREAIRLVGMEDRLAAETDPLQCPVEEGGANFSVGQRQLLCMARTLLRRGCSFILMDEATANVDPTLDKQIQHVVTHVFAGHTVITIAHRLHTLATYDVILMMEEGRVVEMGSPYDLVRSADTRFAQMVRSLGESAMQEFMASTQAPTR” belongs “not soluble”; to “KTHFVIQLKEDSQLMDEVVVVGFGTQKKINLTGAVTAVNIQETLGDRPITNVTAALQGVVPGLKIEGTTGTPGDNLSYNIRGTTSINGGGPLVLVNNVPMDINMIDPQDIESVSVLKDAASAAIYGARAAFGVILITTKQGKKDM”, “not soluble”.
As for “MSIQHFRVALIPFFAAFCLPVFAHPETLVKVKDAEDQLGARVGYIELDLNSGKILESFRPEERFPMMSTFKVLLCGAVLSRIDAGQEQLGRRIHYSQNDLVEYSPVTEKHLTDGMTVRELCSAAITMSDNTAANLLLTTIGGPKELTAFLHNMGDHVTRLDRWEPELNEAIPNDERDTTMPVAMATTLRKLLTGELLTLASRQQLIDWMEADKVAGPLLRSALPAGWFIADKSGAGERGSRGIIAALGPDGKPSRIVVIYTTGSQATMDERNRQIAEIGASLIKHW”, the “soluble on expression in E. coli” value is listed as “soluble”.
To “MGSDKIHHHHHHMEKIGELINHFRENKGMSQAELSEGILSKAQLSKFERDLTKISVDKFLALLERLHVTFTEFGNALAIQERLYEQAILEDITKAVINNNKDQAQLVKERAEQHLKKHHGKYNQLTLIMVKAMICDMEKGTLPKADTKVLADYLFSVDGWTHFELLLFGNTMSALSLVTVNQLARELAAQINEAWAIHQNFQLTINLLYNVVILNLSAKDLTTARLFLRVMKHSHVEDSMMAERYLIALADAFCDYCGEPTVEHENNVKRMIEIQKEIGSTNFFVAFNNQAKMFISETKISSNDSAGNV” belongs “not soluble”.
As to “MSLDGGTLGATNRFLTRDGSPWIPIAGEMHYSRIAAERWDTELAKMAAAGIDVVSTYVFWNHHEEREGEWDFSGNRNVRRFVELCARHGLHVIVRLGPFCHGEVRNGGLPDWLYGKSYEVRSLDAGFLDAVRGLYAHIAQQLRGLYFKDGGPIIAAQVDNEYMASSAPWEMTTGISREWVPSGHDGAGYLERLRDIAIEEGIDPPMFTCTGWQSPVPDDMLPLWGGYAYRPWLFYDGVGAEGMTEHPATDEYRYRRLHGSSTSDGFDPPYDPDSRPYACCEMGGGMFNSYDYRFVLPKRSVDAMANIKLGSGCDFLGYYMFHGGTNPKGAAGFLNEGQTPKRSYDFQAPLGKFGQVRESYRRLRTLHEFVKAFGPELAGMPVSLQDGQDRIDPSDSETLRYAVRSDGERGFVSIDNFQDHARVPSRHGEQIDVTTGTGERIRFTGIGLAEGENCILPFNMDLDGVRLVRANLQPVTVLRVPGRPFRTFVFLKPDGMDELTFHFEGDIQDVTVGKADFERFMVRDAAEIVCVTRALAGRMTVLDGGLAFVDDDNALLYEDGDGWTLESPRAENGIAAYPEGLLGSPRPVEPVSVYARMRRLHADRYEIALPAGMGRLFRDQRQVADVMLNIAYQGDIGWLFCGDVLIADNFCNGETWQVGLRDYADAIDAAGGKLTLVVTPLRRGVRVKVTSSMAARLEQSDACVADVTDVYATPVYHMPVGEGHHHHHH”, the “soluble on expression in E. coli” value is on record as “not soluble”.
With “MVHYKLTYFLSRGLGDVSRQLFHLADVDFEDERLEKPHFLEKKETYPFKQVPVLSVDGFQIPQSMAIARYLAKKFGFAGKTAEESAMVDAFVDQFKDFYSEIRDYYYTMLGLGLTDLDGDEQKDKVLIPARDKFLPLLTRYLEKSKSGFLVDGGLTFADLIILDNMTSLLNWWPEYANDYPVILAWRDKVMNYPRLKEYIEKRPVTMY” the entry was “not soluble”.
For “MSWSLLSNIIKKFTLLHHFQPIGYIYKYIHICTLNHSLGSCVLQANYSIQNNLRSRTLFIQSEITYSHSLESTHFFGILIFFNIKFRVFNRINDPWTVLDNVPEVMFHDRFFINDFTFWVDVLQEAFRMRRWIFRFEQLVVNPSFSNSQWRIIF”, the “soluble on expression in E. coli” value is “soluble”.
With “MEKLTMQEEEVMIYIWELESCYVKDIVAKFEQPTPPYTTVASIVKNLERKKYVKAQRVGNTYLYTPSIKESEYKRSFMSGVVRNYFENSYKEMVSFFAKDQKISTNDLKEIIDMIEKGQEK” the entry was “not soluble”.
With “FGYIVELNWKLSKILNCQPEYVYPKLDELLGCLLTKKPLHEYGMKDEEVRGFAESVLKTQQRLLANNYVELTVDEIEGIYRRLY” the entry was “not soluble”; with “MANSAGSMIKEFCAENFTKIPQAIQKGANRIELCDNLAVGGTTPSTGVIEEVLAYAGEHSVPVMTIIRPRGGNFVYNDIELKIMHTDLIEAKKLGTDGIVIGCLTEDGWLDEEALDLFIETAEGLQITFHMAFDALSKENQFKAIDWLAERGVTRILTHGGPAGTPIEDNFDHLKELIVYADQRILILPGGGISTENVQTVMDTLKVTEVHGTKIVLEHHHHHH”, “not soluble”; with “MAEILRAENIKKVIRGYEILKGISLSVKKGEFVSIIGASGSGKSTLLYILGLLDAPTEGKVFLEGKEVDYTNEKELSLLRNRKLGFVFQFHYLIPELTALENVIVPMLKMGKPKKEAKERGEYLLSELGLGDKLSRKPYELSGGEQQRVAIARALANEPILLFADEPTGNLDSANTKRVMDIFLKINEGGTSIVMVTHERELAELTHRTLEMKDGKVVGEITRV”, “soluble”.
With “KSNYVRVIPNPKVPTDYPAITIEMNDTVSSEQTIEALKSIERVMQEVESQTIADHGQGMIRDVLSYNRSRTEGRVLVPLVDEEIRPFNTFELARRWREAMPVIPGMKSIKIREQSAGGGDRDEFGYLLFGSNINELNQAGRYLIERLQQEEGLFDISSSIDSGSKEVLLSLAPVAYDLGLDLTMIAQQVGGSFYGGEAQRLIRDGEEIKVMVRYPQLTREAFSSLRYAVITTPAGKKVMLGDVVNISEQPGVSTIRREGGYQTVYVYGSIDEELVEPQEIVKIIDDSILPDMKKLHPSVKTELGGDIEEQAAQRNEQ” the entry was “not soluble”.
Take “MSLNSNEKMGIFQGKKMKTKIIVIVGPTAVGKTALAIEVAKRFNGEVVSGDSQQVYRGLDIGTAKASPEEQAAVPHHLIDVREITESYSAFDFVSEAKMTIEDIHSRGKLAIIAGGTGLYIQSLLEGYHLGGETPHEEILAYRASLEPYSDEELAHLVEQAGLEIPQFNRRRAMRALEIAHFGQDLENQEILYEPLIICLDDERSQLYERINHRVDLMFEAGLLDEAKWLFDHSPNVQAAKGIGYKELFPYFRGEQTFEEARESLKQATRRFAKRQLTWFRNRMQVTFYQIGESGVQDRILSQIEEFLDDEGHHHHHH”: the “soluble on expression in E. coli” value is “soluble”.
To “MNITKTLCLCAALSGAAGVQAMENREFVTQQDNTRVNNYQTNRPEASKRLFVSQEVERQIDHIKQLLTNAKLAWMFENCFPNTLDTTVHFDGKEDTFVYTGDIHAMWLRDSGAQVWPYVQLANKDPELKKMLAGVINRQFKCINIDPYANAFNMNSEGGEWMSDLTDMKPELHERKWEIDSLCYPIRLAYHYWKTTGDASVFSDEWLQAIANVLKTFKEQQRKDDAKGPYRFQRKTERALDTMTNDGWGNPVKPVGLIASAFRPSDDATTFQFLVPSNFFAVTSLRKAAEILNTVNRKPALAKECTALADEVEKALKKYAVCNHPKYGKIYAFEVDGFGNQLLMDDANVPSLIALPYLGDVKVTDPIYQNTRKFVWSEDNPYFFKGSAGEGIGGPHIGYDMIWPMSIMMKAFTSQNDAEIKTCIKMLMDTDAGTGFMHESFNKNDPKNFTRAWFAWQNTLFGELILKLVNEGKVDLLNSIQLEHHHHHH” belongs “soluble”.
Regarding “MIALDQHLTEHKKDITQQWLEVCTSNGSWLYSAKDQQKLGQKLKDQHELLVTIVAKSLRKEDVEDELNRWSLQCARDRAVHEVTVTQSFGQFNTFRHIMFEWIHKFSEASSQDISIQEFYEWSRILNQNIDEIIEVFTEEYHQVTMIQLNAQKEMINELSAPIMPITDGIGILPLVGEIDTHRARTILESVLEQCSALKLSYLFLDISGVPIVDTMVAYQIFKVIDSTKLLGIETIISGIRPEIAQTVVKLGLDFSNVKTEQSLAKALANKGFKIKEC”, the “soluble on expression in E. coli” value is “not soluble”.
With “MTQFNGKKIQEKIVSYCIDEVELDLITASDIAFHMTDWLNNLEDLVAFYKTPDEYSPEQLNNILMGFLYHVPNHTIAAAKLLLDVQVTDVFGVGVIADNKDE” the entry was “not soluble”; with “APPAAGQQQPPREPPAAPGAWRQQIQWENNGQVFSLLSLGSQYQPQRRRDPGAAVPGAANASAQQPRTPILLIRDNRTAAARTRTAGSSGVTAGRPRPTARHWFQAGYSTSRAREAGASRAENQTAPGEVPALSNLRPPSRVDGMVGDDPYNPYKYSDDNPYYNYYDTYERPRPGGRYRPGYGTGYFQYGLPDLVADPYYIQASTYVQKMSMYNLRCAAEENCLASTAYRADVRDYDHRVLLRFPQRVKNQGTSDFLPSRPRYSWEWHSCHQHYHSMDEFSHYDLLDANTQRRVAEGHKASFCLEDTSCDYGYHRRFACTAHTQGLSPGCYDTYGADIDCQWIDITDVKPGNYILKVSVNPSYLVPESDYTNNVVRCDIRYTGHHAYASGCTISPY”, “soluble”; with “MSRGTQACINAAHTVSGIIGDLDTTIMFATAGTLHSDGDGSFADHREHILQTAKALVEDTKVLVTGAAGTQDQLANAAQNAVSTITQLAEAVKRGACSLGSTQPDSQVMVINAVKDVASALGDLINCTKLASGKSINDPSMQDLKESARVMVLNVSSLLKTVKAVEDEHTRGTRAMEATVEAISQEIRALEHHHHHHHH”, “soluble”.
With “MGSDKIHHHHHHMIHRQTNQLNTDNLEKKQRQYKYAFNLAEIDSESFPMHIFRKYAKDVFEDHQLSLLQRGERQGEYILRQQISHYLFNSRGVTCHPNQIIVGSSTSQLLDMITNLLKKEEFIIEQPSYPPIKHTLDKKGISYIQVPVEQNGIQIDPILNTNNNILYITPSHQFPTGYVTNLKKRTQLINWSHQAKQRYIIEDDYDSEFRYFGKPIPALQSLDTKGKVIYISTFSKSLYPSCRIAYIVLPQNLMHKYNNQKYKEGNTVPVHVQHMIAQFMISGKFERHLNKMRKIYRDKLDYILKRLKPYNTQIKIEGALTGMHFTITVNNGLSMKQCLKNAKKNNLKLKPYHYENYSKVYPKFILGFGGIKKEELEDHVNALIHSLVI”, the “soluble on expression in E. coli” value is on record as “not soluble”.
As to “MGHHHHHHSHMSAVGTATPYLHHPGDSHSGRVSFLGAQLPPEVAAMARLLGDLDRSTFRKLLKFVVSSLQGEDCRDCCSVLGSAPTCRRAAGCLLAGMHTLLQQALRLPPTSLKPDTFRDPAPGALHPPRPGRGLGQRGIWEPAALLDSVAQQQGAWLPHVADFRWRVDVAISTSALARSLQPSVLMQLKLSDGSAYRFEVPTAKFQELRYSVALVLKEMADLEKRCERRLQD”, the “soluble on expression in E. coli” value was “soluble”.
